Reference: patent publication US10509035B2, “Antibodies, antibody drug conjugates and methods of use” (GAMAMABS PHARMA, priority 2015, dated 2019)
“Also recorded” adds a separate entry of the source.

T1: extracellular domain of AMHR-II receptor (AMHR-II-ECD-Fc) (Homo sapiens, UniProt Q16671)
T1 construct: Fc (C); purchased R&D System
T1 sequence (Q16671 18-149 limits assumed): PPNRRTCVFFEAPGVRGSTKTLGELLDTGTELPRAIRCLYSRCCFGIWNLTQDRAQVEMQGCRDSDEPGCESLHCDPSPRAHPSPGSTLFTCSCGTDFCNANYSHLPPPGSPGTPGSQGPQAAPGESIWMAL

T2: AMHR2 receptor expressed at the surface membrane of the COV434 WT cell line (Homo sapiens, UniProt Q16671)
T2 construct: assayed on the low expressing AMHR-II COV434 WT cell line; endogenous in cells; host or cells: COV434 WT
T2 sequence (Q16671 18-573): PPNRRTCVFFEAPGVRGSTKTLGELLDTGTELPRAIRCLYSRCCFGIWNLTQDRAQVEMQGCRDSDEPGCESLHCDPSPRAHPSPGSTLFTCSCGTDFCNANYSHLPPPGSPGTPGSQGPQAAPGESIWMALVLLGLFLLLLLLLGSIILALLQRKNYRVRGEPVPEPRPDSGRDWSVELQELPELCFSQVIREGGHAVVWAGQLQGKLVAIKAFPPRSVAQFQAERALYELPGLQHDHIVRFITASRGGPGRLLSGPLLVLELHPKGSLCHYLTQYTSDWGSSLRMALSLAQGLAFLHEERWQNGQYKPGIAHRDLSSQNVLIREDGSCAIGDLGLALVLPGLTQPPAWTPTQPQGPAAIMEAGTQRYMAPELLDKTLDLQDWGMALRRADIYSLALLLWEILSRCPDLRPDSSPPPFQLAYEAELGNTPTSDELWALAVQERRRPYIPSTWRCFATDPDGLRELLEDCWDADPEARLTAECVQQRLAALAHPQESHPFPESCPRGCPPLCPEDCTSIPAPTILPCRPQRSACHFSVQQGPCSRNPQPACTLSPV


Key:
[1] = tested on: COV434 AMHR-II transfected cell line; assay: Antibody internalization (flow cytometry and immunofluorescence imaging); assay type: cell-based; conditions: flow cytometry; K4D24 0.5 μg/ml, 6C59 0.3 μg/ml, 3C23K 10 μg/ml
Method: Antibody mediated internalization were assessed by flow cytometry analysis and by immunofluorescence imaging. Flow cytometry experiments was done on the two expressing AMHR-II cell lines: COV434 WT with low level of expression and COV434-AMHR-II transfected cell line with high level of expression. Briefly, 5×10^5 cells were incubated with 3C23K at 10 μg/ml and incubated 30 min at 4° C. After washes, DMEM/GlutaMax (Gibco) medium, cold or pre-warmed at 37° C., was added and incubated at 4° C. or 37° C. at different time points (15 min, 30 min and 60 min). Phycoerythrin-conjugated anti-human IgG antibody (1:200, Beckman-Coulter) was added for 30 min at 4° C. FACS analysis of the resuspended cells was done on a BD Accuri™ C6 flow cytometer (BD Bioscience). As depicted in FIGS. 9A and 9B, the internalization of the 3C23K observed at 37° C. is fast whatever the level of AMHR-II expression. For immunofluorescence imaging experiments, COV434 AMHR-II transfected cell line were grown on poly-D lysine coated glass coverslips overnight at 37° C. at a density of 75000 cells/cm^2. Cells were incubated with 3C23K directly labelled with Alexa Fluor 488 for 1H30 at 4° C. to carry out surface labelling. Cell surface bound antibodies were allowed to internalize by incubating cells in prewarmed medium at 37° C. At appropriate time points, coverslips were removed and cells were washed in PBS, then fixed in formaline (4%, 30 min at room temperature) and permeabilized (Triton X-100 0.5%, 5 min at room temperature). Nuclei were stained with DAPI (4′,6-diamidino-2-phenylindole) and coverslips were mounted on microscope slides and imaged with Leica DM5000 microscope (Leica Microsystems). Internalization was quantified by counting the number of visible vesicles in cell section at different incubation time using Image J software.
The internalization capacity of the K4D24 and 6C59 variants was assayed by fluorescence cytometry analysis in the same manner as in Example 8 except for the concentrations used. Due to their strong binding, K4D24 and 6C59 were used at 0.5 μg/ml and 0.3 μg/ml respectively whereas the 3C23K was used at 10 μg/ml.

[2] = target: T1, extracellular domain of AMHR-II receptor (AMHR-II-ECD-Fc); assay: ELISA binding to the extracellular domain of AMHR-II receptor
Method: The binding capacity of the anti-AMHR-II 3C23K antibodies was evaluated by ELISA. ELISA plates (96 wells, Maxisorp, NUnc) were coated overnight at +4° C. with 50 ng per well of AMHR-II-ECD-Fc (R&D System). Coated ELISA plates were blocked with PBS-BSA 4% for 2 hours at 37° C. and washed three times with PBS-Tween20 0.05%. […] The bound anti-AMHR-II antibodies were detected by adding HRP-conjugated F(ab′)2 goat anti-human F(ab′2) fragment specific (Interchim) diluted at 1:10000 and incubated for one hour at 37° C. Revelation was done with TMB (Sigma) and the reaction was stopped by adding H2SO4 1N (v:v). Absorbances were measured at 450 nm and binding data curves were analysis using GraphPad Prism.
The binding capacity of the anti-AMHR-II variants K4D24 and 6C59 antibodies was assayed by ELISA assay as the same manner as in example 3 with only minor changes. ELISA plates (96 wells, Maxisorp, NUnc) were coated overnight at +4° C. with 50 ng per well or 10 ng per well of AMHR-II-ECD-Fc (R&D System). K4D24, 6C59 and 3C23K were serially diluted from 4 μg/ml to 1 ng/ml. Absorbances were measured at 450 nm and binding data curves were analysis using four-parameter nonlinear regression fit from GraphPad Prism. FIGS. 15A-15B show the results.

[3] = target: T2, AMHR2 receptor expressed at the surface membrane of the COV434 WT cell line; assay: FACS binding to the low expressing COV434 WT cell line; conditions: variants 25, 10, 5 μg/ml; 3C23K 50, 25, 10 μg/ml
Method: The COV434 AMHR-II transfected and the COV434 WT cell lines were maintained in DMEM/GlutaMax (Gibco) supplemented with 10% FBS, penicillin 100 U/ml and Streptomycin 100 μg/ml. Geneticin at 666 μg/ml was added for the COV434 AMHR-II transfected cell line. […] After washes, Phycoerythrin-conjugated anti-human IgG antibody (1:200, Beckman-Coulter) was added for 1 hour at room temperature. FACS analysis of the resuspended cells was done on a BD Accuri™ C6 flow cytometer (BD Bioscience).
The binding capacity of the anti-AMHR-II antibody variants K4D24 and 6C59 to the AMHR-II expressing cell lines was evaluated by flow cytometry analysis in the same manner as example 4. FACS analysis with COV434-AMHR-II transfected cell line is described in FIG. 16. The Kapparent of the K4D24 and 6C59 variants were improved by a factor of 20 and 40 fold respectively as compared to the 3C23K (0.098 μg/ml and 0.05 μg/ml versus 2.2 μg/ml). The binding capacity of these variants was also assayed on the low expressing AMHR-II COV434 WT cell line. In this setting the binding was evaluated with three concentrations of variants (25, 10 and 5 μg/ml) and three concentrations of 3C23K (50, 25 and 10 μg/ml).

[4] = coating 10 ng/well AMHR-II recombinant protein
[5] = coating 50 ng/well AMHR-II recombinant protein

Molecule	internalization compared with 3C23K [1]	binding compared with 3C23K [2, 4]	binding compared with 3C23K [2, 5]	binding compared to 3C23K on the COV434 WT cell line [3]
6C59: 3C23K variant; VH H-Q1R (SEQ ID NO: 22), VL L-S27P, L-S28P (SEQ ID NO: 40) (antibody, V domains shown, K4D-24/6C59; LS27P, L-S28P) VH: RVRLVQSGAEVKKPGASVKVSCKASGYTFTSYHIHWVRQAPGQRLEWMGWIYPGDDSTKYSQKFQGRVTITRDTSASTAYMELSSLRSEDTAVYYCTRGDRFAYWGQGTLVTVSS VL: DIQMTQSPSTLSASVGDRVTITCRASPPVRYIAWYQQKPGKAPKLLTYPTSSLKSGVPSRFSGSGSGTEFTLTISSLQPDDFATYYCLQWSSYPWTFGGGTKVEIK	retain the same internalization potential	Improved binding; also recorded: stronger	no major difference of binding	strongly improve the level of detection; also recorded: stronger binding
K4D24: 3C23K variant; VH H-Q1R (SEQ ID NO: 22), VL SEQ ID NO: 36 (antibody, V domains shown, K4D-24/6C59; 3C23K) VH: RVRLVQSGAEVKKPGASVKVSCKASGYTFTSYHIHWVRQAPGQRLEWMGWIYPGDDSTKYSQKFQGRVTITRDTSASTAYMELSSLRSEDTAVYYCTRGDRFAYWGQGTLVTVSS VL: DIQMTQSPSTLSASVGDRVTITCRASSSVRYIAWYQQKPGKAPKLLTYPTSSLKSGVPSRFSGSGSGTEFTLTISSLQPDDFATYYCLQWSSYPWTFGGGTKVEIK	retain the same internalization potential	Improved binding; also recorded: stronger	no major difference of binding	strongly improve the level of detection; also recorded: stronger binding
